Target: interleukin-10 (IL-10) (UniProt P22301 19-178)
Assay: luminescence quenching on Y-MOF; 1 uM protein; no obvious quenching at 514 nm; Y-MOF suspension 0.1 g/L (900 uL) mixed with 1 uM DNA (100 uL) 30 min; excitation 380 nm, IL-6 0-14.4 nM; buffer, salt, pH and temperature not stated
Conditions: protein: commercial; chain copies: 2; label: 5'-FAM; stem-loop

Chain of interleukin-10 (IL-10) (P22301 19-178): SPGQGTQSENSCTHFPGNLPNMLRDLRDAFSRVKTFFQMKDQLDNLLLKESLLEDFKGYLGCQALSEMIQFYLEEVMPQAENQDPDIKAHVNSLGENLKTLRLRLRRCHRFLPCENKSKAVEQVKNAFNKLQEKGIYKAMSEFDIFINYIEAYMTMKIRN

B1: S2 (extended IL-6 aptamer) (structured_DNA)
DNA: TTTTTTTAAGCTTACCTGCCATGCCAGTACCCCCAGGAGAAGATTCCAAAGATGTGGCCGCCCCACAAAAAAAA
B1: no binding.
